Like-named read-outs stand apart in the source and are kept apart here. Values belong to the molecule of their own block, whether it stands above or below them. Ends that are not written are not given here.
Legend:
Test in all cases: fluorescence polarisation
[1] = molecular target: mbGIPC PDZ domain (Monosiga brevicollis GIPC homologue, original construct) (Monosiga brevicollis)
[2] = molecular target: mbGIPC PDZ domain (Monosiga brevicollis GIPC homologue, original construct) (Monosiga brevicollis); remark: listed apart in the source
[3] = molecular target: mbSHANK1 PDZ domain (Monosiga brevicollis SHANK1 homologue) (Monosiga brevicollis)

Molecule: β-1 adrenergic receptor (B1AR) C-terminal peptide
fold worse affinity than GAIP [1]: 20 fold

B2: fluorescent β-PIX peptide (peptide)
peptide: NDPAWDETNL
modifications: also: fluorescent label, kind and position not given here
fold higher affinity than the GIRK3 peptide [3]: 62 fold

More lines, now with the values ahead:

Ki [1]: 140 nM
Molecule: GAIP C-terminal peptide

fold worse affinity than GAIP [1]: 10 fold
Molecule: tyrosinase-related protein 1 (TYRP1) C-terminal peptide

Ki [2]: > 1 mM
B1: decameric peptide matching the final 10 residues of the mbGIPC_(SFDEI) construct (peptide)
peptide: VEPKKSFDEI

From doi:10.1101/2020.05.28.121053
